In article PMC7404307:

Biological target: ternary troponin complex I-T-C (cTnI-cTnT-cTnC) (UniProt P19429+P45379+P63316)
Experiment: SPR imaging
Settings: L-DNA (all L-2'-deoxyribose); SPRi: PBS (10 mM phosphate, 137 mM NaCl, 2.7 mM KCl, pH 7.4), 25 C; filter binding: PBS, RT, 1 h; AlphaLisa: selection buffer (PBS, 1 mg/mL BSA, 0.01 ug/mL …)

CAGTGAGTGATGGTGAGGGCTTAGTTCGCCGCTCATGCCGAATCTCCTGTATAAATACCCACACTGTCCATACACG [A6 spiegelmer]
Kd: 0.54 nM

CAGTGAGTGATGGTGAGGGTGAATCGGTGTCGACTATTAAATTAAGTTGTGGTTGTTCCCACACTGTCCATACACG [C6 spiegelmer]
Kd: 0.305 nM
